From IntAct's records for PubMed 25114243

B1: Ras-related protein Rab-5C (Homo sapiens), P51148 (parent)
chain: MAGRGGAARPNGPAAGNKICQFKLVLLGESAVGKSSLVLRFVKGQFHEYQESTIGAAFLTQTVCLDDTTVKFEIWDTAGQERYHSLAPMYYRGAQAAIVVYDITNTDTFARAKNWVKELQRQASPNIVIALAGNKADLASKRAVEFQEAQAYADDNSLLFMETSAKTAMNVNEIFMAIAKKLPKNEPQNATGAPGRNRGVDLQENNPASRSQCCSN
B2: Ras-related protein Rab-5C (Homo sapiens), P51148 (parent)
chain: B1 chain
partner: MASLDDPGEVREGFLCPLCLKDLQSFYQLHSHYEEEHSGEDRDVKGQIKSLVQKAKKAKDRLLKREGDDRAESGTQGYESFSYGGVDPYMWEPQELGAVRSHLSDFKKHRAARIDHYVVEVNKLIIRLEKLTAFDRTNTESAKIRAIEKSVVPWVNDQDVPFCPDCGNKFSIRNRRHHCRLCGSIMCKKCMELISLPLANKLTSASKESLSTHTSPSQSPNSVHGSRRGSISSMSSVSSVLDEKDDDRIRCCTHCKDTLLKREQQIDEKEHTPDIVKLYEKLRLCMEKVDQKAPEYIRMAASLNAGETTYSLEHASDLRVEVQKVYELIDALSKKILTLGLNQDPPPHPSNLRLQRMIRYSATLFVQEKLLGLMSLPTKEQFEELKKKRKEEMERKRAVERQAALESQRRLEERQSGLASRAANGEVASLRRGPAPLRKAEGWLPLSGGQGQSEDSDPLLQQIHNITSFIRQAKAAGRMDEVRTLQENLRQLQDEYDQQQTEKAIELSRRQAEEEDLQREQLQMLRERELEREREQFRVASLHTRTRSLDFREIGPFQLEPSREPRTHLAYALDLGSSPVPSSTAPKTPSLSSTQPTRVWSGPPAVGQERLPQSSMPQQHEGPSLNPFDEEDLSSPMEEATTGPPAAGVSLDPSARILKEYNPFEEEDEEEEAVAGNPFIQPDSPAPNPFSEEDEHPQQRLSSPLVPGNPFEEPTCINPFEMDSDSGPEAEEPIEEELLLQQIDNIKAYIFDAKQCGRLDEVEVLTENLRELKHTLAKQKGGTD
B3: Ras-related protein Rab-5C (Homo sapiens), P51148 (parent)
chain: B1 chain
partner: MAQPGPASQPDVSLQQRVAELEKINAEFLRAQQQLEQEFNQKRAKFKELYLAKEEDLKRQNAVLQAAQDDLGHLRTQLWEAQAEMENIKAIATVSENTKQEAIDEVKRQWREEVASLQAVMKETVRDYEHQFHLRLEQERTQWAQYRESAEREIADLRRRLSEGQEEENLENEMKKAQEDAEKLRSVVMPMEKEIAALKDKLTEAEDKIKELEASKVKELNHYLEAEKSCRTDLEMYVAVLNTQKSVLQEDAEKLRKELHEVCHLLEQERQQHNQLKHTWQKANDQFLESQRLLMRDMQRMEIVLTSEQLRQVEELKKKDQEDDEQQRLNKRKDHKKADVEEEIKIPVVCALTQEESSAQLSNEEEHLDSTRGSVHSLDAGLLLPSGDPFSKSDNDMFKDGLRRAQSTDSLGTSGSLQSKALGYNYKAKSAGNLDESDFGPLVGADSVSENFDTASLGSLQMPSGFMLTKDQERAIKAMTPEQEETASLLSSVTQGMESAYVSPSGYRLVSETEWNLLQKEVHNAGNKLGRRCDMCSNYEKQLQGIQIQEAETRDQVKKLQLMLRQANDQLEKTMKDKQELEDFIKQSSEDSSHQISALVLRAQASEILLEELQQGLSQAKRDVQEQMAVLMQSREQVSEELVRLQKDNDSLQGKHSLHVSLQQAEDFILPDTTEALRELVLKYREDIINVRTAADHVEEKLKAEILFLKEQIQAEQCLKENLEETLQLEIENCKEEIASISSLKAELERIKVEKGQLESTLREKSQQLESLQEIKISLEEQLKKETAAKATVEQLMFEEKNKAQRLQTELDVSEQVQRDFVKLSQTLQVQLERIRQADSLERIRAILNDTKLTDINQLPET

Variants of: B1
Settings: with eea1_human EEA1, Q15075
Sequence of eea1_human EEA1, Q15075 (Q15075 whole entry): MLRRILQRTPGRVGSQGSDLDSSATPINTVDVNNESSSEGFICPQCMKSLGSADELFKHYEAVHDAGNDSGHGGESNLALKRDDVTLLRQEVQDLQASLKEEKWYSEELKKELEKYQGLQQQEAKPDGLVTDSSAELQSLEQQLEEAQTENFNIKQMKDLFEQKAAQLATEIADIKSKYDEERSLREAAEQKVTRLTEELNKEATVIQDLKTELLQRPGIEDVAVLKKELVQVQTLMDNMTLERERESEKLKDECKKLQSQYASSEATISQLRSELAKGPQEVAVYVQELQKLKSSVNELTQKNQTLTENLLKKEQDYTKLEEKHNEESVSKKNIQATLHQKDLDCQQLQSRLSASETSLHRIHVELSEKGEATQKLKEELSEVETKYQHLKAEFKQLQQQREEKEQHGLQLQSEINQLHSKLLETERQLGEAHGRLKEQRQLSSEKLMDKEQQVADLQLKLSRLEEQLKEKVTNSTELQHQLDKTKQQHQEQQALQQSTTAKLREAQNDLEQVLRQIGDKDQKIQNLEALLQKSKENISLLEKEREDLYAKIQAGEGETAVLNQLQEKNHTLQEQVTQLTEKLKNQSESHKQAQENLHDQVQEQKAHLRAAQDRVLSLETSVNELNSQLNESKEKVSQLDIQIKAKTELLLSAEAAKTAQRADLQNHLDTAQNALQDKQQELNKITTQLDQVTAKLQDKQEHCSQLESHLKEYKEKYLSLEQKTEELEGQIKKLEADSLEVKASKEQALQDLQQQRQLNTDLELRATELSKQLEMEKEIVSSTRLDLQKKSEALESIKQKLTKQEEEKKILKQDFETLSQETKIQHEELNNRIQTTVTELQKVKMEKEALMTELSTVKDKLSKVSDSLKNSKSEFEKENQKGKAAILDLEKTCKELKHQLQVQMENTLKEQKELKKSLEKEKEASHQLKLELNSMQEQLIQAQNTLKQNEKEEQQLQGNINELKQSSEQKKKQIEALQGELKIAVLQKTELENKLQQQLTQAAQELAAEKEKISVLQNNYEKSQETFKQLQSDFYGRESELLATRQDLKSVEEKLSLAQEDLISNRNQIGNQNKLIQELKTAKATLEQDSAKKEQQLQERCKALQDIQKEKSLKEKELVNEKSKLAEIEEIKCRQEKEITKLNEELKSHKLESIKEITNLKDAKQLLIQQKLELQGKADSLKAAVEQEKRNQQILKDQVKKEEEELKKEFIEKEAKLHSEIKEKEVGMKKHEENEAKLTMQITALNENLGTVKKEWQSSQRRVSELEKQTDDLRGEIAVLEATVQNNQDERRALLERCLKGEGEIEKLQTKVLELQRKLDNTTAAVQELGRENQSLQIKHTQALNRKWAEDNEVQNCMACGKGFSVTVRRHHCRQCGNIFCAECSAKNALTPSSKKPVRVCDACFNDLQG
R92A was tested, and the “effect of a mutation on the interaction” value was “decreasing interaction”.

Variants of: B2
Settings: with rbns5_human RBSN
R92A was tested, and the “effect of a mutation on the interaction” value was “decreasing interaction”.

Variants of: B3
Settings: with rabe1_human RABEP1, Q15276
For R92A, the “effect of a mutation on the interaction” value was “with no effect”.
